Assay results as given in patent US20220146501A1.

How the values were obtained:
[1] = molecular target: anti-C-reactive protein antibody (MAB-1); assay: TR-FRET competition, acceptor emission; unlabeled CRP calibrator at 2.9 mg/L
[2] = molecular target: anti-C-reactive protein antibody (MAB-1); assay: TR-FRET competition, acceptor emission; unlabeled CRP calibrator at 8.1 mg/L
[3] = molecular target: anti-C-reactive protein antibody (MAB-1); assay: TR-FRET competition, acceptor emission; unlabeled CRP calibrator at 20.4 mg/L
[4] = molecular target: anti-C-reactive protein antibody (MAB-1); assay: TR-FRET competition, acceptor emission; unlabeled CRP calibrator at 60.5 mg/L
[5] = molecular target: anti-C-reactive protein antibody (MAB-1); assay: TR-FRET competition, acceptor emission; unlabeled CRP calibrator at 118.7 mg/L
[6] = molecular target: anti-C-reactive protein antibody (MAB-1); assay: TR-FRET competition; labeled anti-CRP MAB-1 with labeled CRP as tracer; unlabeled CRP calibrator at 2.9 mg/L
[7] = molecular target: anti-C-reactive protein antibody (MAB-1); assay: TR-FRET competition; labeled anti-CRP MAB-1 with labeled CRP as tracer; unlabeled CRP calibrator at 8.1 mg/L
[8] = molecular target: anti-C-reactive protein antibody (MAB-1); assay: TR-FRET competition; labeled anti-CRP MAB-1 with labeled CRP as tracer; unlabeled CRP calibrator at 20.4 mg/L
[9] = molecular target: anti-C-reactive protein antibody (MAB-1); assay: TR-FRET competition; labeled anti-CRP MAB-1 with labeled CRP as tracer; unlabeled CRP calibrator at 60.5 mg/L
[10] = molecular target: anti-C-reactive protein antibody (MAB-1); assay: TR-FRET competition; labeled anti-CRP MAB-1 with labeled CRP as tracer; unlabeled CRP calibrator at 118.7 mg/L

B1: C-reactive protein (unlabeled analyte / calibrator) (protein)
chain: QTDMSRKAFVFPKESDTSYVSLKAPLTKPLKAFTVCLHFYTELSSTRGYSIFSYATKRQDNEILIFWSKDIGYSFTVGGSEILFEVPEVTVAPVHICTSWESASGIVEFWVDGKPRVRKSLKKGYTVGAEASIILGQEQDSFGGNFEGSQSLVGDIGNVNMWDFVLSPDEINTIYLGGPFSPNVLNWRALKYEVQGEVFTKPQLWP
Acceptor1RFU [1]: 210000 RFU | Acceptor1RFU [2]: 162000 RFU | Acceptor1RFU [3]: 103000 RFU | Acceptor1RFU [4]: 49700 RFU | Acceptor1RFU [5]: 29900 RFU | FRETRatio [6]: 17100 | FRETRatio [7]: 13100 | FRETRatio [8]: 8220 | FRETRatio [9]: 3980 | FRETRatio [10]: 2320
